Laboratory results reported in patent US10513547B2, “Peptides and combination of peptides and scaffolds thereof for use in immunotherapy against colorectal carcinoma (CRC) and other cancers” (Immatics Biotechnologies GmbH, priority 2015, dated 2019).

Columns and labels:
HLA-A*02:01 = HLA-A*02:01 (Homo sapiens, UniProt P04439, D140Y/D185E/D98H/E176V/E277Q/G131W/G231S/I119V/I121R/I166T/I218V/L300P/L318F/N151K/N90K/P208A/P217A/Q86G/Q94H/R138H/R169H/T345S); test: MHC binding assay (UV-ligand exchange, beta2m ELISA, peptide exchange yield); conditions: binding to HLA-A*02:01
Procedure, shortened: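 Peptide–HLA-A*02:01 complexes formed by UV-ligand exchange, in which a UV-cleavable peptide is replaced by the test peptide. Exchange products, diluted 100-fold, were captured on streptavidin plates and detected with HRP anti-β2m ELISA at 450 nm. Yield was quantified against refolded monomer standards at 15-500 ng/ml.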

CD8+ T-cells = test: In vitro T-cell priming assay with aAPCs loaded with peptide/MHC and anti-CD28, pMHC multimer readout; format: cell-based, human; conditions: HLA-A*02 restricted peptides; positive wells among evaluable
Text: In order to obtain information regarding the immunogenicity of the TUMAPs of the present invention, the inventors performed investigations using an in vitro T-cell priming assay based on repeated stimulations of CD8+ T-cells with artificial antigen presenting cells (aAPCs) loaded with peptide/MHC complexes and anti-CD28 antibody.
In order to perform in vitro stimulations by artificial antigen presenting cells loaded with peptide-MHC complex (pMHC) and anti-CD28 antibody, the inventors first isolated CD8+ T-cells from fresh HLA-A*02 leukapheresis products via positive selection using CD8 microbeads (Miltenyi Biotec, Bergisch-Gladbach, Germany) of healthy donors obtained from the University clinics Mannheim, Germany, after informed consent.
PBMCs and isolated CD8+ lymphocytes were incubated in T-cell medium (TCM) until use consisting of RPMI-Glutamax (Invitrogen, Karlsruhe, Germany) supplemented with 10% heat inactivated human AB serum (PAN-Biotech, Aidenbach, Germany), 100 U/ml Penicillin/100 μg/ml Streptomycin (Cambrex, Cologne, Germany), 1 mM sodium pyruvate (CC Pro, Oberdorla, Germany), 20 μg/ml Gentamycin (Cambrex). 2.5 ng/ml IL-7 (PromoCell, Heidelberg, Germany) and 10 U/ml IL-2 (Novartis Pharma, Nürnberg, Germany) were also added to the TCM at this step.
Generation of pMHC/anti-CD28 coated beads, T-cell stimulations and readout was performed in a highly defined in vitro system using four different pMHC molecules per stimulation condition and 8 different pMHC molecules per readout condition.
The purified co-stimulatory mouse IgG2a anti human CD28 Ab 9.3 (Jung et al., 1987) was chemically biotinylated using Sulfo-N-hydroxysuccinimidobiotin as recommended by the manufacturer (Perbio, Bonn, Germany). Beads used were 5.6 μm diameter streptavidin coated polystyrene particles (Bangs Laboratories, Illinois, USA).
800.000 beads/200 μl were coated in 96-well plates in the presence of 4×12.5 ng different biotin-pMHC, washed and 600 ng biotin anti-CD28 were added subsequently in a volume of 200 μl. Stimulations were initiated in 96-well plates by co-incubating 1×10^6 CD8+ T-cells with 2×10^5 washed coated beads in 200 μl TCM supplemented with 5 ng/ml IL-12 (PromoCell) for 3 days at 37° C. Half of the medium was then exchanged by fresh TCM supplemented with 80 U/ml IL-2 and incubating was continued for 4 days at 37° C. This stimulation cycle was performed for a total of three times. For the pMHC multimer readout using 8 different pMHC molecules per condition, a two-dimensional combinatorial coding approach was used as previously described (Andersen et al., 2012) with minor modifications encompassing coupling to 5 different fluorochromes. Finally, multimeric analyses were performed by staining the cells with Live/dead near IR dye (Invitrogen, Karlsruhe, Germany), CD8-FITC antibody clone SK1 (BD, Heidelberg, Germany) and fluorescent pMHC multimers. For analysis, a BD LSRII SORP cytometer equipped with appropriate lasers and filters was used. Peptide specific cells were calculated as percentage of total CD8+ cells. Evaluation of multimeric analysis was done using the FlowJo software (Tree Star, Oreg., USA). In vitro priming of specific multimer+ CD8+ lymphocytes was detected by comparing to negative control stimulations.

Peptide exchange (MHC class I binding score, peptide exchange yield) (HLA-A*02:01)	Substance	Wells positive [%] (CD8+ T-cells)
“++” (≥20% = ++)	133 (RTFEKIEEV; listed as Homo sapiens) [compound 133]	“+” (<20% = +)
“++++” (≥75% = ++++)	42 (SILDDSFKL; listed as Homo sapiens) [compound 42]	“+” (<20% = +)
“++” (≥20% = ++)	7 (YLTRHLAVL; listed as Homo sapiens) [compound 7]	“+” (<20% = +)
″+++” (≥50 = +++)	1 (ALIKQLFEA; listed as Homo sapiens) [compound 1]	″+” (<20% = +)
“+++” (≥50 = +++)	21 (VLIDHRWVL; listed as Homo sapiens) [compound 21]	“+” (<20% = +)
“+++” (≥50 = +++)	150 (RLADLEALKV; listed as Homo sapiens) [compound 150]	“++″ (20%-49% = ++)
“++” (≥20% = ++)	2 (ALLPRYFFL; listed as Homo sapiens) [compound 2]	“++++” (> = 70% = ++++)
“++” (≥20% = ++)	123 (KTLERSYLL; listed as Homo sapiens) [compound 123]	“+” (<20% = +)
“+++” (≥50 = +++)	11 (YLFEKTFNM; listed as Homo sapiens) [compound 11]	“+” (<20% = +)
“+++” (≥50 = +++)	22 (GLIDEVMVL; listed as Homo sapiens) [compound 22]	“++” (20%-49% = ++)
“++” (≥20% = ++)	38 (SLAPTPVSA; listed as Homo sapiens) [compound 38]	“+” (<20% = +)
“++” (≥20% = ++)	64 (KTLGKLWRL; listed as Homo sapiens) [compound 64]	“++++” (> = 70% = ++++)
“+++” (≥50 = +++)	136 (KLFDIFSQQV; listed as Homo sapiens) [compound 136]	“++” (20%-49% = ++)
“+++” (≥50 = +++)	18 (FLSSLKGGLL; listed as Homo sapiens) [compound 18]	“+” (<20% = +)
“++++” (≥75% = ++++)	141 (AVIEHLERL; listed as Homo sapiens) [compound 141]	“+” (<20% = +)
“+++” (≥50 = +++)	13 (FLLAEDTKV; listed as Homo sapiens) [compound 13]	“++” (20%-49% = ++)
“+++” (≥50 = +++)	37 (GLFAGLGGAGA; listed as Homo sapiens) [compound 37]	“+” (<20% = +)
“+++” (≥50 = +++)	12 (ALVQGILERV; listed as Homo sapiens) [compound 12]	“++++” (> = 70% = ++++)
“++” (≥20% = ++)	9 (ILDDHLSRV; listed as Homo sapiens) [compound 9]	“+” (<20% = +)
“+++” (≥50 = +++)	31 (LLYGKYVSV; listed as Homo sapiens) [compound 31]	“++” (20%-49% = ++)
“+++” (≥50 = +++)	17 (ALAAARVEL; listed as Homo sapiens) [compound 17]	“++” (20%-49% = ++)
“+++” (≥50 = +++)	132 (ALLNAILHSA; listed as Homo sapiens) [compound 132]	“+” (<20% = +)
